Laboratory results from paper PMC3709506, “Comparative cross-linking and mass spectrometry of an intact F-type ATPase suggest a role for phosphorylation” (Nature Communications, 2013).

T1: chloroplast ATP synthase (cATPase) subunit γ (Spinacia oleracea, UniProt P05435 42-364)
T1 construct: ATP synthase gamma chain, chloroplastic, Spinacia oleracea; also called γ-subunit; source: purified from spinach leaves as part of the intact F1FO chloroplast ATP synthase
T1 sequence (looked up): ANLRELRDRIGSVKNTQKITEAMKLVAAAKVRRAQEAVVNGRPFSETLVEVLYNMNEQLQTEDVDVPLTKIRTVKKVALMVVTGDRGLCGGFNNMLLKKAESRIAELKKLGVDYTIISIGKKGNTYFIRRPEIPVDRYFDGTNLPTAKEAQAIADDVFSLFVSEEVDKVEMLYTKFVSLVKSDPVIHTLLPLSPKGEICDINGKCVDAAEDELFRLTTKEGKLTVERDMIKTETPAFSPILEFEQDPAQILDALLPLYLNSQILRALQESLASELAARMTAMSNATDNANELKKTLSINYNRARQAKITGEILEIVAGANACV

B1: chloroplast ATP synthase (cATPase) subunit β, untreated enzyme (natural protein, Spinacia oleracea, UniProt P00825 1-498, looked up)
chain: MRINPTTSDPGVSTLEKKNLGRIAQIIGPVLDVAFPPGKMPNIYNALIVKGRDTAGQPMNVTCEVQQLLGNNRVRAVAMSATDGLTRGMEVIDTGAPLSVPVGGATLGRIFNVLGEPVDNLGPVDTRTTSPIHRSAPAFTQLDTKLSIFETGIKVVDLLAPYRRGGKIGLFGGAGVGKTVLIMELINNIAKAHGGVSVFGGVGERTREGNDLYMEMKESGVINEQNIAESKVALVYGQMNEPPGARMRVGLTALTMAEYFRDVNEQDVLLFIDNIFRFVQAGSEVSALLGRMPSAVGYQPTLSTEMGSLQERITSTKEGSITSIQAVYVPADDLTDPAPATTFAHLDATTVLSRGLAAKGIYPAVDPLDSTSTMLQPRIVGEEHYEIAQRVKETLQRYKELQDIIAILGLDELSEEDRLTVARARKIERFLSQPFFVAEVFTGSPGKYVGLAETIRGFQLILSGELDSLPEQAFYLVGNIDEATAKAMNLEMESKLKK
modifications: phosphosites identified at S8, T54
notes: ATP synthase subunit beta, chloroplastic, Spinacia oleracea; K498 is called the carboxy-terminal residue; Three copies stand in the F1 head (α3β3); also called β-subunit; source: purified from spinach leaves as part of the intact F1FO chloroplast ATP synthase
B2: cATPase subunit β, dephosphorylated enzyme (natural protein, Spinacia oleracea, UniProt P00825 1-498, looked up)
chain: B1 chain
notes: ATP synthase subunit beta, chloroplastic, Spinacia oleracea; as m2 but treated with phosphatase; The whole complex was treated with the phosphatase; also called β (dephosphorylated form)
B3: cATPase subunit ε, dephosphorylated enzyme (natural protein, Spinacia oleracea, UniProt P00833 1-134, looked up)
chain: MTLNLCVLTPNRSIWNSEVKEIILSTNSGQIGVLPNHAPTATAVDIGILRIRLNDQWLTLALMGGFARIGNNEITILVNDAERGSDIDPQEAQQTLEIAEANLRKAEGKRQKIEANLALRRARTRVEASNTISS
notes: ATP synthase epsilon chain, chloroplastic, Spinacia oleracea; as m4 but treated with phosphatase; The whole complex was treated with the phosphatase; also called ε (dephosphorylated form)
B4: chloroplast ATP synthase (cATPase) subunit ε, untreated enzyme (natural protein, Spinacia oleracea, UniProt P00833 1-134, looked up)
chain: B3 chain
modifications: phosphosite identified at S13
notes: ATP synthase epsilon chain, chloroplastic, Spinacia oleracea; also called ε-subunit; source: purified from spinach leaves as part of the intact F1FO chloroplast ATP synthase
B5: chloroplast ATP synthase (cATPase) subunit II, untreated enzyme (natural protein, Spinacia oleracea, UniProt P31853 76-222, looked up)
chain: EEIEKASLFDFNLTLPIIMAEFLFLMFALDKIYYTPLGDFMDKRDASIKEQLSGVKDTSSEVKQLEEQANAVMRAARAEISAALNKMKKETQLEVEAKLAEGRKKIEVELQEALGSLEQQKEDTIKSLDSQISALSDDIVKKVLPVS
modifications: phosphosites identified at S122, S211
notes: ATP synthase subunit b' (CF0 subunit II), chloroplastic, Spinacia oleracea; also called stator subunit II; peripheral stalk subunit II; source: purified from spinach leaves as part of the intact F1FO chloroplast ATP synthase
B6: cATPase subunit II, dephosphorylated enzyme (natural protein, Spinacia oleracea, UniProt P31853 76-222, looked up)
chain: B5 chain
notes: ATP synthase subunit b' (CF0 subunit II), chloroplastic, Spinacia oleracea; as m6 but treated with phosphatase; The whole complex was treated with the phosphatase; also called II (dephosphorylated form)
B7: cATPase subunit α, dephosphorylated enzyme (natural protein, Spinacia oleracea, UniProt P06450 1-507, looked up)
chain: MATIRADEISKIIRERIEGYNREVKVVNTGTVLQVGDGIARIHGLDEVMAGELVEFEEGTIGIALNLESNNVGVVLMGDGLMIQEGSSVKATGRIAQIPVSEAYLGRVINALAKPIDGRGEITASESRLIESPAPGIMSRRSVYEPLQTGLIAIDAMIPVGRGQRELIIGDRQTGKTAVATDTILNQQGQNVICVYVAIGQKASSVAQVVTNFQERGAMEYTIVVAETADSPATLQYLAPYTGAALAEYFMYRERHTLIIYDDLSKQAQAYRQMSLLLRRPPGREAYPGDVFYLHSRLLERAAKLSSLLGEGSMTALPIVETQAGDVSAYIPTNVISITDGQIFLSADLFNAGIRPAINVGISVSRVGSAAQIKAMKKVAGKLKLELAQFAELEAFAQFASDLDKATQNQLARGQRLRELLKQPQSAPLTVEEQVMTIYTGTNGYLDSLELDQVRKYLVELRTYVKTNKPEFQEIISSTKTFTEEAEALLKEAIQEQMERFLLQEQA
notes: ATP synthase subunit alpha, chloroplastic, Spinacia oleracea; as m1 but treated with phosphatase; The whole complex was treated; also called α (dephosphorylated form)

Legend:
Settings in all cases: both partners purified
[1] = molecular target: T2, chloroplast ATP synthase (cATPase) subunit α, untreated enzyme (Spinacia oleracea, UniProt P06450 1-507, phosphosites identified at S127, Y196, S369, T442); assay: cross-linking; untreated cATPase, 1:1 mixture of 2.5 mM BS3-d4 and 2.5 mM BS3-d0, 1 h at room temperature; NuPAGE gel, in-gel digestion, LC-MS/MS, MassMatrix search, manual validation
T2 construct: ATP synthase subunit alpha, chloroplastic, Spinacia oleracea; Three copies stand in the F1 head (α3β3); also called α subunit; source: purified from spinach leaves as part of the intact F1FO chloroplast ATP synthase

[2] = molecular target: B7; assay: cross-linking; comparative: dephosphorylated cATPase (calf intestinal alkaline phosphatase, 37 °C) cross-linked with 2.5 mM deuterated BS3, untreated cATPase with non-deuterated BS3, pooled; areas of extracted ion chromatograms of heavy and light cross-links compared
[3] = molecular target: B2; assay: as above
[4] = molecular target: T1, chloroplast ATP synthase (cATPase) …; assay: cross-linking; untreated cATPase, 1:1 mixture of 2.5 mM BS3-d4 and 2.5 mM BS3-d0, 1 h at room temperature; NuPAGE gel, in-gel digestion, LC-MS/MS, MassMatrix search, manual validation
[5] = molecular target: B1; assay: as above

B1
binding result [1]: binds

B2
binding result [2]: binds

B3
binding result [3]: binds
binding result [2]: binds

B4
binding result [4]: binds
binding result [1]: binds
binding result [5]: binds

B5
binding result [1]: binds
binding result [5]: binds

B6
binding result [3]: binds
binding result [2]: binds

B7
fold decrease of cross-link intensity against the untreated enzyme (two cross-links, β loops to α C-terminal domain) [3]: > 10 fold
fold decrease of the intensity of the K378-K498 cross-link against the untreated enzyme [3]: ~5 fold
